One molecule from article PMC6995776 (Journal of molecular biology, 2019) can be followed below.

Assay in all cases: ITC
(In general: In ITC the heat of successive injections is recorded.)

Test [1] has as its target TbPRMT1 ENZ-Δ45PRO complex (Trypanosoma brucei, UniProt Q4GYA9 1-345).
Test [2] addresses T1, TbPRMT1 ENZ-PRO complex (wild type) (Trypanosoma brucei, UniProt Q4GYA9 1-345).
Test [3] has as its target TbPRMT1 ENZ-Δ21PRO complex (Trypanosoma brucei, UniProt Q4GYA9 1-345).
Test [4] addresses TbPRMT1 ENZ-Δ31PRO complex (Trypanosoma brucei, UniProt Q4GYA9 1-345).
Test [5] addresses T1, TbPRMT1 ENZ-PRO complex (wild type). The source holds these as a separate data set.

B1: Maltose Binding Protein (MBP)-fused TbRGG1 (natural protein)
chain: MVCSTICLFQRGQWGNEGSRGDQRNYDNRGGRGEWGDRGGQRGDNQRDYGDQRNYDNRGGRGEWGDRGGQRGDNQRDYGDQRNYDNRGGRGEWGDRGGQRGDNQRDYGDQRNYDNRGGRGEWGDRGGQRGDNQRDYGDQRNYDNRGGRGEWGDRGGQRGDNQRDYGDQRNYDNRGGRGEWGDRGGQRGDNQRNYDNRGGRGEWGDRGGQRGGNQRDNSNQFGYRNERDGGIGRQRSARDNFGAHDNRASDERGSTDPAVGEVFDEQAAKILYELKRRFKSSKTGKERRDVQREARRIVRRARVDPSTQDEKSVTLLLNCAATFRCYPHTEGIKQATEWMRKNIDGLSPQNVALFTNAIGALSVVDSDTILINEISPAVEACYGQMNPVELVMTLQAFQRGRITENEDLQVSLLQQLVTCVPQMPAPQLSTLAGVLVDTPLRKRDEATWQEIAKTVVSKAASGAENMHSREVITLLKATPRLGVPEDHSFHLVDRAIATVGFHTDEQIGELLEAVSYYRDPQKTCGRELNEKLDKLVDALWARLQKVAPFADAASVTTIMRAAHRSGVDVPRDIVSTLVQAVMRELRYHRFTFRRVASLSEALALQKVPAKELLVMLGDYCIGKRPPREERGENTPVDDHNSGIEERMDIYARFLGDLTKARIALENAHSSNAGNGEPGSSVSQILAQRLEDSVGSAPPRELLKSVRAICTAADDCPFRNRANDGKIIALSEQRIAKEGASFMEGVRKTTMENFLSAVSGIPQAQKVVEVLSHQTR
Regarding B1, the Kd (commonly a measure of binding affinity in units of concentration) came out at 160 µM in test [1], 9 µM in test [2], 36 µM in test [3] and 86 µM in test [4]. For the same molecule, the stoichiometry N (in general, the number of molecules, sites or subunits per partner or assembly) in test [5] is 1.
